B1: IgFD-7(anti-CD19/CD3) (bispecific antibody)
chain 1: EVQLVESGGGLVQPGGSLRLSCAASGFTFNTYAMNWVRQAPGKGLEWVARIRSKYNNYATYYADSVKDRFTISRDDSKNTLYLQMNSLRAEDTAVYYCVRHGNFGNSYVSWFAYWGQGTLVTVSSASTKGPSVFPLAPSSKSTSGGTAALGCLVKDYFPEPVTVSWNSGALTSGVHTFPAVLQSSGLYSLSSVVTVPSSSLGTQTYICNVNHKPSNTKVDKKVEPKSCDKTHTCPPCPAPPVAGPSVFLFPPKPKDTLMISRTPEVTCVVVDVSHEDPEVKFNWYVDGVEVHNAKTKPREEQYNSTYRVVSVLTVLHQDWLNGKEYKCKVSNKGLPSSIEKTISKAKGQPREPQVYTLPPSRDELTKNQVSLTCLVKGFYPSDIAVEWESNGQPENNYKTTPPVLDSDGSFFLYSKLTVDKSRWQQGNVFSCSVMHEALHNHYTQKSLSLSPGK
chain 2: QAVVTQEPSLTVSPGGTVTLTCRSSTGAVTTSNYANWVQQKPDHLFRGLIGGTNKRAPGTPARFSGSLLGDKAALTISGAQPEDEAEYYCALWYSNLWVFGGGTKLTVLKRTVAAPSVFIFPPSDEQLKSGTASVVCLLNNFYPREAKVQWKVDNALQSGNSQESVTEQDSKDSTYSLSSTLTLSKADYEKHKVYACEVTHQGLSSPVTKSFNRGECDKTHTCPPCPAPPVAGPSVFLFPPKPKDTLMISRTPEVTCVVVDVSHEDPEVKFNWYVDGVEVHNAKTKPREEQYNSTYRVVSVLTVLHQDWLNGKEYKCKVSNKGLPSSIEKTISKAKGQPREPQVYTLPPSRDELTKNQVSLTCLVKGFYPSDIAVEWESNGQPENNYKTTPPVLDSDGSFFLYSKLTVDKSRWQQGNVFSCSVMHEALHNHYTQKSLSLSPGKSGGGGSGGGGSGGGGSDIQMTQTTSSLSASLGDRVTISCRASQDISKYLNWYQQKPDGTVKLLIYHTSRLHSGVPSRFSGSGSGTDYSLTISNLEQEDIATYFCQQGNTLPYTFGGGTKLEITGGGGSGGGGSGGGGSEVKLQESGPGLVAPSQSLSVTCTVSGVSLPDYGVSWIRQPPRKGLEWLGVIWGSETTYYNSALKSRLTIIKDNSKSQVFLKMNSLQTDDTAIYYCAKHYYYGGSYAMDYWGQGTSVTVSS
B2: IgFD-25(anti-CD3/EGFR) (bispecific antibody)
chain 1: EVQLVESGGGLVQPGGSLRLSCAASGFTFNTYAMNWVRQAPGKGLEWVARIRSKYNNYATYYADSVKDRFTISRDDSKNTLYLQMNSLRAEDTAVYYCVRHGNFGNSYVSWFAYWGQGTLVTVSSASTKGPSVFPLAPSSKSTSGGTAALGCLVKDYFPEPVTVSWNSGALTSGVHTFPAVLQSSGLYSLSSVVTVPSSSLGTQTYICNVNHKPSNTKVDKKVEPKSCDKTHTCPPCPAPPVAGPSVFLFPPKPKDTLMISRTPEVTCVVVDVSHEDPEVKFNWYVDGVEVHNAKTKPREEQYNSTYRVVSVLTVLHQDWLNGKEYKCKVSNKGLPSSIEKTISKAKGQPREPQVYTLPPCRDELTKNQVSLWCLVKGFYPSDIAVEWESNGQPENNYKTTPPVLDSDGSFFLYSKLTVDKSRWQQGNVFSCSVMHEALHNHYTQKSLSLSPGK
chain 2: QAVVTQEPSLTVSPGGTVTLTCRSSTGAVTTSNYANWVQQKPDHLFRGLIGGTNKRAPGTPARFSGSLLGDKAALTISGAQPEDEAEYYCALWYSNLWVFGGGTKLTVLKRTVAAPSVFIFPPSDEQLKSGTASVVCLLNNFYPREAKVQWKVDNALQSGNSQESVTEQDSKDSTYSLSSTLTLSKADYEKHKVYACEVTHQGLSSPVTKSFNRGECDKTHTCPPCPAPPVAGPSVFLFPPKPKDTLMISRTPEVTCVVVDVSHEDPEVKFNWYVDGVEVHNAKTKPREEQYNSTYRVVSVLTVLHQDWLNGKEYKCKVSNKGLPSSIEKTISKAKGQPREPQVCTLPPSRDELTKNQVSLSCAVKGFYPSDIAVEWESNGQPENNYKTTPPVLDSDGSFFLVSKLTVDKSRWQQGNVFSCSVMHEALHNHYTQKSLSLSPGKGGSGGSGGGGSGGGGSDIQMTQSPSSLSASVGDRVTITCQASQDISNYLNWYQQKPGKAPKLLIYDASNLETGVPSRFSGSGSGTDFTFTISSLQPEDIATYFCQHFDHLPLAFGGGTKVEIKGGGGSGGGGSGGGGSQVQLQESGPGLVKPSETLSLTCTVSGGSVSSGDYYWTWIRQSPGKGLEWIGHIYYSGNTNYNPSLKSRLTISIDTSKTQFSLKLSSVTAADTAIYYCVRDRVTGAFDIWGQGTMVTVSS
B3: IgFD-26(anti-CD3/EGFR) (bispecific antibody)
chain 1: not shown
chain 2: QAVVTQEPSLTVSPGGTVTLTCRSSTGAVTTSNYANWVQQKPDHLFRGLIGGTNKRAPGTPARFSGSLLGDKAALTISGAQPEDEAEYYCALWYSNLWVFGGGTKLTVLKRTVAAPSVFIFPPSDEQLKSGTASVVCLLNNFYPREAKVQWKVDNALQSGNSQESVTEQDSKDSTYSLSSTLTLSKADYEKHKVYACEVTHQGLSSPVTKSFNRGECDKTHTCPPCPAPELLGGPSVFLFPPKPKDTLMISRTPEVTCVVVDVSHEDPEVKFNWYVDGVEVHNAKTKPREEQYASTYRVVSVLTVLHQDWLNGKEYKCKVSNKALPAPIEKTISKAKGQPREPQVCTLPPSREEMTKNQVSLSCAVKGFYPSDIAVEWESNGQPENNYKTTPPVLDSDGSFFLVSKLTVDKSRWQQGNVFSCSVMHEALHNHYTQKSLSLSPGKGGSGGSGGGGSGGGGSDIQMTQSPSSLSASVGDRVTITCQASQDISNYLNWYQQKPGKAPKLLIYDASNLETGVPSRFSGSGSGTDFTFTISSLQPEDIATYFCQHFDHLPLAFGGGTKVEIKGGGGSGGGGSGGGGSQVQLQESGPGLVKPSETLSLTCTVSGGSVSSGDYYWTWIRQSPGKGLEWIGHIYYSGNTNYNPSLKSRLTISIDTSKTQFSLKLSSVTAADTAIYYCVRDRVTGAFDIWGQGTMVTVSS
B4: IgFD-31(anti-CD3/EGFR) (bispecific antibody)
chain 1: EVQLVESGGGLVQPGGSLRLSCAASGFTFNTYAMNWVRQAPGKGLEWVARIRSKYNNYATYYADSVKDRFTISRDDSKNTLYLQMNSLRAEDTAVYYCVRHGNFGNSYVSWFAYWGQGTLVTVSSASTKGPSVFPLAPSSKSTSGGTAALGCLVKDYFPEPVTVSWNSGALTSGVHTFPAVLQSSGLYSLSSVVTVPSSSLGTQTYICNVNHKPSNTKVDKKVEPKSCGGSGAKLAALKAKLAALKGGGGSDKTHTCPPCPAPPVAGPSVFLFPPKPKDTLMISRTPEVTCVVVDVSHEDPEVKFNWYVDGVEVHNAKTKPREEQYNSTYRVVSVLTVLHQDWLNGKEYKCKVSNKGLPSSIEKTISKAKGQPREPQVYTLPPSRDELTKNQVSLTCLVKGFYPSDIAVEWESNGQPENNYKTTPPVLDSDGSFFLYSKLTVDKSRWQQGNVFSCSVMHEALHNHYTQKSLSLSPGK
chain 2: QAVVTQEPSLTVSPGGTVTLTCRSSTGAVTTSNYANWVQQKPDHLFRGLIGGTNKRAPGTPARFSGSLLGDKAALTISGAQPEDEAEYYCALWYSNLWVFGGGTKLTVLKRTVAAPSVFIFPPSDEQLKSGTASVVCLLNNFYPREAKVQWKVDNALQSGNSQESVTEQDSKDSTYSLSSTLTLSKADYEKHKVYACEVTHQGLSSPVTKSFNRGECGGGGSELAALEAELAALEAGGSGDKTHTCPPCPAPPVAGPSVFLFPPKPKDTLMISRTPEVTCVVVDVSHEDPEVKFNWYVDGVEVHNAKTKPREEQYNSTYRVVSVLTVLHQDWLNGKEYKCKVSNKGLPSSIEKTISKAKGQPREPQVYTLPPSRDELTKNQVSLTCLVKGFYPSDIAVEWESNGQPENNYKTTPPVLDSDGSFFLYSKLTVDKSRWQQGNVFSCSVMHEALHNHYTQKSLSLSPGKGGSGGSGGGGSGGGGSDIQMTQSPSSLSASVGDRVTITCQASQDISNYLNWYQQKPGKAPKLLIYDASNLETGVPSRFSGSGSGTDFTFTISSLQPEDIATYFCQHFDHLPLAFGGGTKVEIKGGGGSGGGGSGGGGSQVQLQESGPGLVKPSETLSLTCTVSGGSVSSGDYYWTWIRQSPGKGLEWIGHIYYSGNTNYNPSLKSRLTISIDTSKTQFSLKLSSVTAADTAIYYCVRDRVTGAFDIWGQGTMVTVSS

Columns and labels:
[1] = target: T1, hEGFR-6-his (SinoBiological) (human, UniProt P00533 25-645); assay: ELISA; printed value although curve is flat
[2] = target: T1, hEGFR-6-his (SinoBiological); assay: ELISA

Binder	Kd [1]	Kd [2]
B1	0.161 nM	
B2		0.15 nM
B3		0.139 nM
B4		0.161 nM

Reference: patent publication US20220089722A1 (published 2022)
